Source: US20110039770A1 (PHARMAGAP, published 2011)
Where no end group is shown, it is not given here.

What was measured:
[1] = target: PKC-βII, purified isoform (UniProt P05771-2 1-673); assay: cell-based or functional assay
[2] = target: T1, PKC-ε, purified isoform (UniProt Q02156 1-737); assay: cell-based or functional assay
T1 sequence (looked up): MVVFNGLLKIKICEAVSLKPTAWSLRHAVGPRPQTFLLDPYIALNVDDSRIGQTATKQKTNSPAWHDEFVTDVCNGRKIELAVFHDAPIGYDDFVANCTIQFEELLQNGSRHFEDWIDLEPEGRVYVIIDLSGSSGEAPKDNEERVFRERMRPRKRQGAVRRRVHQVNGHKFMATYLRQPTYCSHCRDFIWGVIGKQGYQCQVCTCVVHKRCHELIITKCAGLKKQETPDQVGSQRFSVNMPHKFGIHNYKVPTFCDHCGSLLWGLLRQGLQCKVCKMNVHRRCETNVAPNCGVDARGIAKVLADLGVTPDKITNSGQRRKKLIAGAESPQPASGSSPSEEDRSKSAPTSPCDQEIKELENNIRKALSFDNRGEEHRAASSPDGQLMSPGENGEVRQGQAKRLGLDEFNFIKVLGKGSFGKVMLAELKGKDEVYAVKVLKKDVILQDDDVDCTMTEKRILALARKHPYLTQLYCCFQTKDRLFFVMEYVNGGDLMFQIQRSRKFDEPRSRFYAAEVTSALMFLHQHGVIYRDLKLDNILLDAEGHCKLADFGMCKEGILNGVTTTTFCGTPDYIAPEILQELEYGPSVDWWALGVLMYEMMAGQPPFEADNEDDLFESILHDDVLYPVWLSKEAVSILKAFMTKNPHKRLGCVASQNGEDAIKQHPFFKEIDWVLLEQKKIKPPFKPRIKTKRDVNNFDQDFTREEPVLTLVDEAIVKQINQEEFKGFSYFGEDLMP

[3] = target: T2, PKC-βI, purified isoform (UniProt P05771-1 1-671); assay: cell-based or functional assay
T2 sequence (P05771 whole entry, canonical isoform): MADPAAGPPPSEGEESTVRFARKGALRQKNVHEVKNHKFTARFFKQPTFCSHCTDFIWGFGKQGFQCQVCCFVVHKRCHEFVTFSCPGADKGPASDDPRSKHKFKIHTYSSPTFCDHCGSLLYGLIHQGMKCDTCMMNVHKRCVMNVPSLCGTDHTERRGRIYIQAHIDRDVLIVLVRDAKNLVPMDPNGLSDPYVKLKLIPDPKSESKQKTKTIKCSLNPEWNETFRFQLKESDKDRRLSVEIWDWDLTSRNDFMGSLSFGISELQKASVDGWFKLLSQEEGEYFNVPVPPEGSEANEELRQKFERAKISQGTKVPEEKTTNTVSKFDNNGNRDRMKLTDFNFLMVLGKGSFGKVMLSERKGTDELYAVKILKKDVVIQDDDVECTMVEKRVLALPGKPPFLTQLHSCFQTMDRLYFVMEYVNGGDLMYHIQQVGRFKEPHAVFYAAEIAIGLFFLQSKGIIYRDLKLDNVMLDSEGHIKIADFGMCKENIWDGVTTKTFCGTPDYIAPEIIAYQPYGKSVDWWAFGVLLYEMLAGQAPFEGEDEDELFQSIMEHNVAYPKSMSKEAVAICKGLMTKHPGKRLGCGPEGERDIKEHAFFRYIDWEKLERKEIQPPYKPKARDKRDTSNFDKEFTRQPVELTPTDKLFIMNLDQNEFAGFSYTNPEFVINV

[4] = target: PKC-α, purified isoform (UniProt P17252 1-672); assay: cell-based or functional assay
[5] = target: T3, PKC-ε (endogenous, IMR-32 lysate) (human, UniProt Q02156 1-737); assay: WB competition Protocol B, IMR-32 extract, vs anti-PKC-ε Ab; PKC-ε Band 2; 50 µg peptide
T3 construct: Band 1 and Band 2 (alternate splicing variants, not identified further) are kept under one molecule; the band is named in the assay field of each row; also called PKC-epsilon; PKC-ε Band 1
T3 sequence (looked up): T1 sequence (looked up)
Procedure: (§1) The ability of the peptides PRE 2 and PRE 3 (see Table 4) to interfere with the binding of a PKC-α-specific polyclonal antibody (Santa Cruz Biotechnology, Inc.) to PKC-α was determined using a modified version of the protocol outlined above in which the test peptide was added directly to the cell extract prior to electrophoresis at a concentration of either 5× or 15× the concentration of the protein applied to each well of the gel for the Western blots (20 μg).
(§2) Peptides PRE 2, PRE 3 and PRE 4 (see Table 4) were tested for their ability to interfere with the binding of isoform-specific polyclonal antibodies (Santa Cruz Biotechnology, Inc.) to […] using the general protocol described in Example 3. Two bands, representing alternate splicing variants of PKC-ε, were identified on the Western blot using this anti-PKC-ε antibody.

[6] = target: T3, PKC-ε (endogenous, IMR-32 lysate); assay: WB competition Protocol B, IMR-32 extract, vs anti-PKC-ε Ab; PKC-ε Band 1; 50 µg peptide
Procedure: as §1, §2

[7] = target: T4, PKC-βI (purified isoform) (Homo sapiens (Human), UniProt P05771 2-671); assay: competitive ELISA, coated purified PKC-βI, vs anti-PKC βI (SC-209); PRE 200 µM
T4 construct: also called PKC-beta I; PKC beta 1
T4 sequence (P05771 2-671 limits assumed): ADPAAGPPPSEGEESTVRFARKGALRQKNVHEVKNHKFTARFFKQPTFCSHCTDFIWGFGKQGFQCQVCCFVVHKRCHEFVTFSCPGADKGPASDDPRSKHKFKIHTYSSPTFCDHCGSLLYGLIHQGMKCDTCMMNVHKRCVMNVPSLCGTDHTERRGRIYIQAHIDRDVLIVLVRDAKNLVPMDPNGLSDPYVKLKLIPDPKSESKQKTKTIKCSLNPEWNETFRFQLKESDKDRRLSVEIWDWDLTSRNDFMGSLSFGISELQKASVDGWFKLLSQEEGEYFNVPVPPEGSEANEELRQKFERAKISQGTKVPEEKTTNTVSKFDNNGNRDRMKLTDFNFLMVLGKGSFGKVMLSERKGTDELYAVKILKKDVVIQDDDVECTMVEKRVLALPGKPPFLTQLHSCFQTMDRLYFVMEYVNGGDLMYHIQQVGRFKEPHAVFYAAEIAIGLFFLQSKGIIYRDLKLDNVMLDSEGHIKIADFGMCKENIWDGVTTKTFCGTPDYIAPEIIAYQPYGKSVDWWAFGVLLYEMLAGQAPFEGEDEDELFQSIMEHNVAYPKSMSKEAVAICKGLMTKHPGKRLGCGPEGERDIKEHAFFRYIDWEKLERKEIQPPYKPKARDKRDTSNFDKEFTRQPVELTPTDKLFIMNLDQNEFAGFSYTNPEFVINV
Procedure: (§3) Greiner 96 well ELISA plates were coated with the appropriate PKC isoform diluted in PBSN (PBS with Calcium/Magnesium+0.05% Sodium azide w/w). 50 μL/well at 250 ng/mL was used. Control wells contained PBSN only. Plates were incubated overnight at 4° C.
(§4) The plates were washed 3 times with 200 μL of dH₂O per well, then 100 μL of blocking solution was added per well and the plate incubated for 1 h at 37° C. The washing steps with dH₂O were repeated and 50 μL of the appropriate PRE solution (PRE stock solution [20 mM in DMSO] diluted in PBSN) was added and the plate incubated for 1 h at room temperature.
(§5) 50 μL of 1:1000 dilution of Alkaline Phosphatase (AP) conjugated antibody (anti-rabbit for all except zeta, which was anti-goat) was then added and the plate incubated for 1 h at room temperature. Washing with dH₂O was then repeated. Finally, 100 μL of pNPP solution in pNPP buffer (2 mM MgCl₂, 100 mM Sodium bicarbonate in water, pH 9.8) was added to all wells and incubated for 8 minutes for α, βI, βII ε, and ζ, or for 15-20 mins for δ (until sufficient coloration is observed). The reaction was stopped by addition of Stop solution (2N NaOH) and the absorbance at 405 nm was read on a Galaxy Plate reader.

[8] = target: T4, PKC-βI (purified isoform); assay: competitive ELISA, coated purified PKC-βI, vs anti-PKC βI (SC-209); PRE 100 µM
Procedure: as §3, §4, §5

[9] = target: T4, PKC-βI (purified isoform); assay: competitive ELISA, coated purified PKC-βI, vs anti-PKC βI (SC-209); PRE 50 µM
Procedure: as §3, §4, §5

[10] = target: T3, PKC-ε (endogenous, IMR-32 lysate); assay: WB competition Protocol B, IMR-32 extract, vs anti-PKC-ε Ab; PKC-ε Band 1; 20 µg peptide
Procedure: as §1, §2

[11] = target: T5, PKC-α (purified isoform) (Homo sapiens (Human), UniProt P17252 2-672); assay: competitive ELISA, coated purified PKC-α, vs anti-PKC α (SC-208); PRE 50 µM
T5 construct: also called purified PKC-alpha; commercially purified PKC-alpha
Procedure: as §3, §4, §5

[12] = target: T3, PKC-ε (endogenous, IMR-32 lysate); assay: WB competition Protocol B, IMR-32 extract, vs anti-PKC-ε Ab; PKC-ε Band 2; 20 µg peptide
Procedure: as §1, §2

[13] = target: T3, PKC-ε (endogenous, IMR-32 lysate); assay: WB competition Protocol B, IMR-32 extract, vs anti-PKC-ε Ab; PKC-ε Band 1; 100 µg peptide
Procedure: as §1, §2

[14] = target: T6, PKC-δ (purified isoform); assay: competitive ELISA, coated purified PKC-δ, vs anti-PKC δ (SC-213); PRE 200 µM
T6 construct: also called PKC-delta
T6 sequence (Q05655 whole entry, stated change not applied, canonical isoform): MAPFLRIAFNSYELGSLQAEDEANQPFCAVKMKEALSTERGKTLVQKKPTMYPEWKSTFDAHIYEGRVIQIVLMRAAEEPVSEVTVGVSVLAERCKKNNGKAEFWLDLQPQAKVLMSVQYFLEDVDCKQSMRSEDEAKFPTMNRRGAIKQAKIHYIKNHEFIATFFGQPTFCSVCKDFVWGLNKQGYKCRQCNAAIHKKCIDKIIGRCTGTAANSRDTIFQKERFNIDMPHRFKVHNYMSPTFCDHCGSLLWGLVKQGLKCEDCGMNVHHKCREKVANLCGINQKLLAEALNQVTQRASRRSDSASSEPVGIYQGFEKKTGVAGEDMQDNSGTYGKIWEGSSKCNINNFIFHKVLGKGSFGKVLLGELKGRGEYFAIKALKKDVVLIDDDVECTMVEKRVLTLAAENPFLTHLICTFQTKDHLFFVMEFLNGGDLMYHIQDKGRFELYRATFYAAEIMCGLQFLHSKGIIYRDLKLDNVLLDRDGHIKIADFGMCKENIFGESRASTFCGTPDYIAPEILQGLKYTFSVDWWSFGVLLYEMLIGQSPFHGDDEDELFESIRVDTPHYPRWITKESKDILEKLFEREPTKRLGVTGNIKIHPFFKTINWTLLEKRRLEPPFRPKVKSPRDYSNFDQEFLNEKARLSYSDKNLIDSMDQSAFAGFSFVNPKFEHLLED
Procedure: as §3, §4, §5

[15] = target: T6, PKC-δ (purified isoform); assay: competitive ELISA, coated purified PKC-δ, vs anti-PKC δ (SC-213); PRE 100 µM
Procedure: as §3, §4, §5

[16] = target: T5, PKC-α (purified isoform); assay: competitive ELISA, coated purified PKC-α, vs anti-PKC α (SC-208); PRE 200 µM
Procedure: as §3, §4, §5

[17] = target: T6, PKC-δ (purified isoform); assay: competitive ELISA, coated purified PKC-δ, vs anti-PKC δ (SC-213); PRE 50 µM
Procedure: as §3, §4, §5

[18] = target: T3, PKC-ε (endogenous, IMR-32 lysate); assay: WB competition Protocol B, IMR-32 extract, vs anti-PKC-ε Ab; PKC-ε Band 2; 100 µg peptide
Procedure: as §1, §2

[19] = target: T5, PKC-α (purified isoform); assay: competitive ELISA, coated purified PKC-α, vs anti-PKC α (SC-208); PRE 100 µM
Procedure: as §3, §4, §5

[20] = target: T2, PKC-βI, purified isoform; assay: purified isoform competition ELISA, summary grade
[21] = target: T7, PKC-ε (UniProt Q02156 1-737); assay: cell-based or functional assay
T7 sequence (looked up): T1 sequence (looked up)

[22] = target: PKC-α (UniProt P17252 1-672, limits assumed); assay: cell-based or functional assay
[23] = target: PKC-βI (UniProt P05771-1 1-671, limits assumed); assay: cell-based or functional assay
Sequence of PKC-βI (P05771 whole entry): as the sequence (P05771 whole entry, canonical isoform) above

Sequence of PKC-βII, purified isoform (P05771 other isoform, or with tags, fused parts or gaps limits assumed): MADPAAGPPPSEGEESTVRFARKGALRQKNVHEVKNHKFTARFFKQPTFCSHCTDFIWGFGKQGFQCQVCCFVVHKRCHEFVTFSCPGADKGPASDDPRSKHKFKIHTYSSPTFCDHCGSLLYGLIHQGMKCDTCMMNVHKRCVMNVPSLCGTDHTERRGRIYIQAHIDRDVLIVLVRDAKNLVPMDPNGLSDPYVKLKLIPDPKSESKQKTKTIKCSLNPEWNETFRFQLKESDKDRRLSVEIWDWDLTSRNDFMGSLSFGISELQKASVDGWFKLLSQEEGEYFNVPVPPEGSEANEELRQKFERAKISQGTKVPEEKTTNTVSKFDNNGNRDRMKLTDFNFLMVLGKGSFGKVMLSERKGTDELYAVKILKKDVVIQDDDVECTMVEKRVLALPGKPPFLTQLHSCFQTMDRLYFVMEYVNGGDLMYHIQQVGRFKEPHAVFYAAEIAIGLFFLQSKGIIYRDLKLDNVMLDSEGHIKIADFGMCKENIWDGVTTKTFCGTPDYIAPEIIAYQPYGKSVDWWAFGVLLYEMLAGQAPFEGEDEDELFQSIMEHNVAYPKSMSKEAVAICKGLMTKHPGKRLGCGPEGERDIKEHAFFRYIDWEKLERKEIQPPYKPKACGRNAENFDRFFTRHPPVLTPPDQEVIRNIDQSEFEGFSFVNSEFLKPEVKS

In the case of FRRK(adenine PNA)FRL [compound PKI 3], the “% Inhibition of PKC activity at 150 µM” value [1] is reported as 31%, the “% Inhibition of PKC activity at 300 µM” value [1] is reported as 83% and the “% Inhibition of PKC activity at 600 µM” value [1] is reported as 81%. The “% Inhibition of PKC activity at 150 µM” value [2] was 38%, the “% Inhibition of PKC activity at 300 µM” value [2] was 53% and the “% Inhibition of PKC activity at 600 µM” value [2] was 68%. The “% Inhibition of PKC activity at 150 µM” value [3] was 37%, the “% Inhibition of PKC activity at 300 µM” value [3] was 76% and the “% Inhibition of PKC activity at 600 µM” value [3] was 80%. The “% Inhibition of PKC activity at 150 µM” value [4] was 47%, the “% Inhibition of PKC activity at 300 µM” value [4] was 51% and the “% Inhibition of PKC activity at 600 µM” value [4] was 82%.

In the case of Ac-AKGIQEVKGGDAQNLIGISI-NH2 (also called peptide PRE 3) [PRE 3], the “Band Intensity” value [5] is reported as 0, the “Inhibition (%)” value [5] is reported as 100% and the “Relative Intensity (%)” value [5] is reported as 0%. The “Band Intensity” value [6] was 0, the “Inhibition (%)” value [6] was 100% and the “Relative Intensity (%)” value [6] was 0%. For the same binder, the “relative binding capacity (100-%n, DMSO subtracted)” value [7] was 23%, the “relative binding capacity (100-%n, DMSO subtracted)” value [8] was 22.5% and the “relative binding capacity (100-%n, DMSO subtracted)” value [9] was 26%. For the same binder, the “Band Intensity” value [10] was 5.12, the “Inhibition (%)” value [10] was 99% and the “Relative Intensity (%)” value [10] was 0.12%. The “relative binding capacity (100-%n, DMSO subtracted)” value [11] was 17.5%, the “Band Intensity” value [12] was 0 and the “Inhibition (%)” value [12] was 100%. For the same binder, the “Relative Intensity (%)” value [12] was 0%, the “Band Intensity” value [13] was 0 and the “Inhibition (%)” value [13] was 100%. For the same binder, the “Relative Intensity (%)” value [13] was 0%, the “relative binding capacity (100-%n, DMSO subtracted)” value [14] was 57% and the “relative binding capacity (100-%n, DMSO subtracted)” value [15] was 56%. For the same binder, the “relative binding capacity (100-%n, DMSO subtracted)” value [16] was 22.6%, the “relative binding capacity (100-%n, DMSO subtracted)” value [17] was 48.3% and the “Band Intensity” value [18] was 0. For the same binder, the “Inhibition (%)” value [18] was 100%, the “Relative Intensity (%)” value [18] was 0% and the “relative binding capacity (100-%n, DMSO subtracted)” value [19] was 26.5%.

B1: PRE 8 (peptide)
peptide: ILEDKGGDAQNLIGISI
notes: also called peptide recognition element 8
B1: no binding [20].

With Ac-FRRCFRLGGGGGGGRRKKGGKDFVVKR-NH2 [Compound TIM 20 (PRE 1 and PKI 4)] the “% Inhibition of kinase activity (Kinase-Glo), compound at 5.0 µM” value (from here on “% Inhibition of kinase activity … at 5.0 µM”) [21] was -9%, the “% Inhibition of kinase activity (Kinase-Glo), compound at 30.0 µM” value (“% Inhibition of kinase activity … at 30.0 µM” below) [21] was -29% and the “% Inhibition of kinase activity … at 5.0 µM” value [22] was 19.8%. The “% Inhibition of kinase activity … at 30.0 µM” value [22] was 0%, the “% Inhibition of kinase activity … at 5.0 µM” value [23] was 6.7% and the “% Inhibition of kinase activity … at 30.0 µM” value [23] was 15.1%.

For Ac-FRRCFRLGGGGGGGAKGIQEVKGGDAQNLIGISI-NH2 [Compound TIM 18 (PRE 3 and PKI 4)], the “% Inhibition of kinase activity … at 5.0 µM” value [21] was -28%, the “% Inhibition of kinase activity … at 30.0 µM” value [21] was 1% and the “% Inhibition of kinase activity … at 5.0 µM” value [22] was 100%. For the same binder, the “% Inhibition of kinase activity … at 30.0 µM” value [22] was 100%, the “% Inhibition of kinase activity … at 5.0 µM” value [23] was 76.3% and the “% Inhibition of kinase activity … at 30.0 µM” value [23] was 76.1%.

With FRRCFRL [compound PKI 4] the “% Inhibition of PKC activity at 150 µM” value [1] was 83%, the “% Inhibition of PKC activity at 300 µM” value [1] was 83% and the “% Inhibition of PKC activity at 600 µM” value [1] was 82%. For the same binder, the “% Inhibition of PKC activity at 150 µM” value [2] was 55%, the “% Inhibition of PKC activity at 300 µM” value [2] was 55% and the “% Inhibition of PKC activity at 600 µM” value [2] was 77%. The “% Inhibition of PKC activity at 150 µM” value [3] was 72%, the “% Inhibition of PKC activity at 300 µM” value [3] was 72% and the “% Inhibition of PKC activity at 600 µM” value [3] was 82%. The “% Inhibition of PKC activity at 150 µM” value [4] was 80%, the “% Inhibition of PKC activity at 300 µM” value [4] was 80% and the “% Inhibition of PKC activity at 600 µM” value [4] was 80%.
